Experimental data taken from US20230002798A1, “PROCESS FOR THE PREPARATION OF A FERMENTABLE SUGAR COMPOSITION AND THE FERMENTATION THEREOF” (WeissBioTech GmbH, priority 2019, published 2023).

Assays:
[1] = Industry-relevant SSF of maltodextrins with added panose, 72 h (Example 2); parameters: species or system Yeast (Deltaferm® AL-18); details: SSF 72 h, maltodextrin + 20 g/L panose, glucoamylase 400 g/t, enzyme 187.5 kU per ton
Protocol: (§1) Quantification of ethanol yield Ethanol was quantified via HPLC. Samples were taken at the end of the SSF or during SSF at set time points. Samples were centrifuged for 1 min at 17,000 xg and sterile filtered (0.2 μm). The samples were frozen at −80° C. prior to measurements. Ethanol was determined with an Aminex 87C column (Bio-Rad Laboratories, Inc., US) on a Shimadzu HPLC system.
For the SSF, the enzyme product was used as crude Bacillus extract. Glucidex® Maltodextrin 12 was dissolved in SSF medium (5 g/L yeast extract, 5 g/L peptone, 1 g/L K2HIPO4, 0.5 g/L Mg2SO4 in 50 mM citrate buffer, pH 4.8) at 300 g/L. Panose was added at 20 g/L. As a positive control, 20 g/L glucose was added. The SSF medium containing starch and sugars was sterile filtered (0.2 μm). Yeast (Deltaferm® AL-18, WeissBioTech GmbH, Ascheberg, Germany) was grown in YINaC medium (50 g/L dextrose, 5 g/L yeast extract, 5 g/L peptone, 1 g/L K2HPO4, 0.5 g/L Mg2SO4*7H2O, 2 g/L NH4Cl in 50 mM sodium citrate, pH 4.8) for 2 days at 37° C. and harvested by centrifugation for 15 min at 5100 rpm and 8° C. Pelleted yeast was added to the SSF at a final concentration of 6 g/L. Glucoamylase (Deltazym® GA L-E5, WeissBioTech GmbH, Ascheberg, Germany) was added at 400 g per ton of dry starch equivalent. The enzyme product Agl1 or Gth was added to a final concentration of 187.5 kU per ton of dry starch equivalent. As a negative control, no oligo-1,6-glucosidase/enzyme product was added. The SSF was performed at 30° C. without stirring or shaking for 72 h.

[2] = SSF of commercial liquefied starch with added alpha-amylase, panose content (Example 4); parameters: species or system Yeast (Deltaferm® AL-18); details: for reduction in panose compared to control / panose detected: after 60 h SSF; for panose detected: liquefied starch with glucoamylase and alpha-amylase, enzyme 187.5 kU per ton; for panose after 72 h: after 72 h SSF
Protocol: (§2) Residual sugars were quantified via HPLC. Samples were taken at the end of the SSF or during SSF at set time points. Samples were centrifuged for 1 min at 17 000 xg and sterile filtered (0.2 μm). The samples were frozen at −80° C. prior to measurements. Residual sugars were determined with a Zorbax NH2 column (Agilent Technologies, Inc., US) on an Agilent 1200 HPLC system.
For SSF, the enzyme product was used as crude Bacillus extract. Acidified liquefied starch from a commercial plant, containing no detectable amounts of panose, isomaltose, isomaltotriose or trehalose, was brought to pH 4.8. SSF medium components (5 g/L yeast extract, 5 g/L peptone, 1 g/L K2HPO4, 0.5 g/L Mg2SO4 in 50 mM citrate buffer, pH 4.8) were added to liquefied starch (300 g/L). The SSF medium containing starch was sterile filtered (0.2 μm). Yeast (Deltaferm® AL-18, WeissBioTech GmbH, Ascheberg, Germany) was grown in YINaC medium (50 g/L dextrose, 5 g/L yeast extract, 5 g/L peptone, 1 g/L K2HIPO4, 0.5 g/L Mg2SO4*7H2O, 2 g/L NH4Cl in 50 mM sodium citrate, pH 4.8) for 2 days at 37° C. and harvested by centrifugation for 15 min at 5100 rpm and 8° C. Pelleted yeast was added to the SSF at a final concentration of 6 g/L. Glucoamylase (Deltazym® GA L-E10, WeissBioTech GmbH, Ascheberg, Germany) was added at 200 g per ton of dry starch equivalent. Alpha-amylase (Fuelzyme®, BASF) was added at 200 g per ton of dry starch equivalent to simulate non-complete removal of alpha-amylase in industrial processes, which is often the cause for increased non-fermentable sugars. The enzyme product Agl1 or Gth was added to a final concentration of 187.5 kU per ton of dry starch equivalent. As control, no oligo-1,6-glucosidase/enzyme product was added. The SSF was performed at 30° C. without stirring or shaking for 72 h.

[3] = Temperature range of enzyme activity; assay type: biochemical; details: 30° C.-80° C. investigated
Protocol: The temperature range was investigated from 30° C.-80° C. by incubating the enzymes and measuring their activity at the respective temperature.

[4] = Lab-scale SSF run with 32% dextrins supplemented with panose; parameters: species or system alcohol yeasts (Deltaferm® AL-18); details: 30° C., pH 4.8, 72 h, glucoamylase 415 g/t, yeast 6 g/L
[5] = SSF of maltodextrins with added panose, 24 h (Example 1); parameters: species or system Yeast (Deltaferm® AL-18); details: SSF 24 h; for panose concentration reduced by: 20 g/L panose added; for ethanol concentration increase by % compared to the negative control / ethanol concentration increase compared to the negative control: 300 g/L maltodextrin + 20 g/L panose, enzyme 187.5 kU per ton; for ethanol concentration increase compared to the negative control: glucoamylase 40 g/t, 30° C., pH 4.8
Protocol: as §1, §2
For simultaneous saccharification and fermentation (abbreviated SSF), the oligo-1,6-glucosidases—either Agl1 or Gth—were used as crude Bacillus extract. Glucidex® Maltodextrin 12 (Roquette, FR) was dissolved in SSF-medium (5 g/L yeast extract, 5 g/L peptone, 1 g/L K2HIPO4, 0.5 g/L Mg2SO4 in 50 mM citrate buffer, pH 4.8) at 300 g/L. Panose, isomaltose, isomaltotriose, maltose, maltotriose, or trehalose was added at 20 g/L. As a positive control, 20 g/L glucose was added instead of the respective sugar. The SSF medium containing starch hydrolysate (maltodextrins) and sugars was sterile filtered (0.2 μm). Yeast (Deltaferm® AL-18, WeissBioTech GmbH, Ascheberg, Germany) was grown in YINaC medium (50 g/L dextrose, 5 g/L yeast extract, 5 g/L peptone, 1 g/L K2HPO4, 0.5 g/L Mg2SO4*7H2O, 2 g/L NH4Cl in 50 mM sodium citrate, pH 4.8) for 2 days at 37° C. and harvested by centrifugation for 15 min at 5100 rpm and 8° C. Pelleted yeast was added to the SSF-medium at a final concentration of 6 g/L. Glucoamylase (Deltazym® GA L-E5, WeissBioTech GmbH, Ascheberg, Germany) was added at 40 g per ton of dry starch equivalent. The enzyme product Agl1 or Gth was added up to a final concentration of 187.5 kU per ton of dry starch equivalent. For the SSF with trehalose, Agl1 or Gth was added at 937.5 kU per ton of dry starch equivalent. As a negative control, an SSF as described above was run without oligo-1,6-glucosidase/enzyme product. The SSF was performed at 30° C. without stirring or shaking for 24 h.

[6] = SSF of maltodextrins with added isomaltose, 24 h (Example 1); parameters: species or system Yeast (Deltaferm® AL-18); details: SSF 24 h, maltodextrin + 20 g/L isomaltose, enzyme 187.5 kU per ton
Protocol: as §1
For simultaneous saccharification and fermentation (abbreviated SSF), the oligo-1,6-glucosidases—either Agl1 or Gth—were used as crude Bacillus extract. Glucidex® Maltodextrin 12 (Roquette, FR) was dissolved in SSF-medium (5 g/L yeast extract, 5 g/L peptone, 1 g/L K2HIPO4, 0.5 g/L Mg2SO4 in 50 mM citrate buffer, pH 4.8) at 300 g/L. Panose, isomaltose, isomaltotriose, maltose, maltotriose, or trehalose was added at 20 g/L. As a positive control, 20 g/L glucose was added instead of the respective sugar. The SSF medium containing starch hydrolysate (maltodextrins) and sugars was sterile filtered (0.2 μm). Yeast (Deltaferm® AL-18, WeissBioTech GmbH, Ascheberg, Germany) was grown in YINaC medium (50 g/L dextrose, 5 g/L yeast extract, 5 g/L peptone, 1 g/L K2HPO4, 0.5 g/L Mg2SO4*7H2O, 2 g/L NH4Cl in 50 mM sodium citrate, pH 4.8) for 2 days at 37° C. and harvested by centrifugation for 15 min at 5100 rpm and 8° C. […]

Molecule | ethanol concentration increase by % compared to the negative control [1] [%] | ethanol concentration increase compared to the negative control [1] | reduction in panose compared to control [2] [%] | panose detected [2] [g/L] | panose after 72 h [2] | temperature range [3] | increase of ethanol yield [4] [%] | panose concentration reduced by [5] [%] | ethanol concentration increase by % compared to the negative control [5] [%] | ethanol concentration increase compared to the negative control [5] | ethanol concentration increase by % compared to the negative control [6] [%] | ethanol concentration increase compared to the negative control [6]
Gth: oligo-1,6-glucosidase of Parageobacillus thermoglucosidasius, amino acid sequence SEQ ID NO:2, expressed in Bacillus subtilis (protein, listed as Parageobacillus thermoglucosidasius, WP_042386239.1 alpha-glucosidase) MERVWWKEAVVYQIYPRSFYDSNGDGIGDIRGIIAKLDYLKELGVDVVWLSPVYKSPNDDNGYDISDYRDIMDEFGTMADWKTMLEEMHKRGIKLVMDLVVNHTSDEHPWFIESRKSKDNPYRDYYIWRPGKNGKEPNNWESVFSGSAWEYDEMTGEYYLHLFSKKQPDLNWENPKVRREVYEMMKFWLDKGVDGFRMDVINMISKVPELPDGEPQSGKKYASGSRYYMNGPRVHEFLQEMNREVLSKYDIMTVGETPGVTPKEGILYTDPSRRELNMVFQFEHMDLDSGPGGKWDIRPWSLADLKKTMTKWQKELEGKGWNSLYLNNHDQPRAVSRFGDDGKYRVESAKMLATFLHMMQGTPYIYQGEEIGMTNVRFPSIEDYRDIETLNMYKERVEEYGEDPQEVMEKIYYKGRDNARTPMQWDDSENAGFTAGTPWIPVNPNYKEINVKAALEDPNSVFHYYKKLIQLRKQHDIIVYGTYDLILEDDPYIYAYTRTLGNEQLIVITNFSEKTPVFRLPDHIIYKTKELLISNYDVDEAEELKEIRLRPWEARVYKIRLP | 15 | 1.77 percentage points (v/v) | 57 | 2.3 | completely hydrolysed | 30-70 °C | 2 | 96 | 85 | 0.94 percentage points (v/v) |  | 
Agl1: oligo-1,6-glucosidase of Bifidobacterium breve UCC2003, amino acid sequence SEQ ID NO:1, expressed in Bacillus subtilis (protein, Bifidobacterium breve UCC2003; ACM89182.1 alpha-glucosidase 1) MMTTFNRAIIPDAIRTNGATPNPWWSNAVVYQIYPRSFQDTNGDGFGDLKGITSRLDYLADLGVDVLWLSPVYKSPQDDNGYDISDYQDIDPLFGTLDDMDELLAEAHKRGLKVVMDLVVNHTSDEHAWFEASKNKDDEHADWYWWRPARPGTTPGEPGSEPNQWGSYFGGSAWEYCPERGEYYLHQFSKKQPDLNWENPAVRRAVYDMMNWWLDRGIDGFRMDVITLISKRTDANGRLPGEYGSELDDLPVGEEGYSNPNPFCADGPRQDEFLKEMRREVFAGREGFLTVGEAPGITPVRNEHITNPANGELDMLFLFDHVDFDCDGVKWKPLPLDLPGFKRIMAGYQTAVENVGWASLFTGNHDQPRVVSRWGDDSSEESRVRSAKALGLMLHMHRGTPYVYQGEELGMTNAHFTSLDQYRDLESLNAYRQRVEEAKVQSPESMLAGIAARGRDNSRTPMQWDGSAYAGFTAPDAATEPWISVNPNHAEINAAGEFDDPDSVYAFYKKLIALRHNSSIVAAGEWQLIDADDAHVYAFTRTLGNERLLVVVNLSGRTVDLPRESTELIAGGVTEPDIILSTYDAPHTVVSLANRELDPWEAAAVQL | 8 | 1.16 percentage points (v/v) | 50 | 2.7 | completely hydrolysed | 30-50 °C | 2 | 96 | 92 | 1.01 percentage points (v/v) | 74 | 0.98 percentage points (v/v)
